The values that follow come from patent US20250206818A1 (AGENUS, published 2025).

Changes are numbered by the printed parent chain.

First the molecules themselves.
B1: P13B02-06 (antibody, IgG1, V domains shown)
VH: QVQLVQSGAEVKKPGASVKVSCKASGFNIKDTYIHWVRQAPGQGLEWMGEIDPANDNTKYDPKFQGRVTITADTSTSTVYMELSSLRSEDTAVYYCATYYYRYDVGGFDYWGQGTLVTVSS
VL: EIVLTQSPGTLSLSPGERATLSCSVSSSISSSNLHWYQQKPGQAPRLLIYGTSNLASGIPDRFSGSGSGTDFTLTISRLEPEDFAVYYCQQWSSYPFTFGQGTKVEIK
notes: Humanized; generated as full length IgG1; also called P13B02-06 (IgG1)
B2: P13B02-26 (antibody, IgG1, V domains shown)
VH: B1 VH with L4M, V5K, K12V, K23T, M48I, T76S, S77N, M81L, E82Q, R102K
VL: B1 VL with V3L, S22T, Y37F, A44S, L48W, I59V, D71S, F72Y
notes: Humanized; VH is H4_R98K; generated as full length IgG1; also called P13B02-26 (IgG1)
B3: P13B02-16 (antibody, IgG1, V domains shown)
VH: B1 VH with L4M, V5K, K23T, T76S, S77N
VL: B1 VL
notes: Humanized; generated as full length IgG1; also called P13B02-16 (IgG1)
B4: P13B02-27 (antibody, IgG1, V domains shown)
VH: B1 VH with L4M, V5K, K12V, K23T, M48I, T76S, S77N, M81L, E82Q, D104E
VL: B1 VL with V3L, S22T, Y37F, A44S, L48W, I59V, D71S, F72Y
notes: Humanized; VH is H4_D100E; generated as full length IgG1; also called P13B02-27 (IgG1)
B5: P13B02-07 (antibody, IgG1, V domains shown)
VH: B1 VH
VL: B1 VL with D71S, F72Y
notes: Humanized; generated as full length IgG1; also called P13B02-07 (IgG1)
B6: P13B02-25 (antibody, IgG1, V domains shown)
VH: B1 VH with L4M, V5K, K12V, K23T, M48I, T76S, S77N, M81L, E82Q
VL: B1 VL with V3L, S22T, Y37F, A44S, L48W, I59V, D71S, F72Y
notes: Humanized; generated as full length IgG1; also called P13B02-25 (IgG1)

The target in one test is T1, human LAG-3 expressed on cells (human, UniProt P18627 23-525).
T1 construct: whole, on cells; also called CD223
T1 sequence (looked up): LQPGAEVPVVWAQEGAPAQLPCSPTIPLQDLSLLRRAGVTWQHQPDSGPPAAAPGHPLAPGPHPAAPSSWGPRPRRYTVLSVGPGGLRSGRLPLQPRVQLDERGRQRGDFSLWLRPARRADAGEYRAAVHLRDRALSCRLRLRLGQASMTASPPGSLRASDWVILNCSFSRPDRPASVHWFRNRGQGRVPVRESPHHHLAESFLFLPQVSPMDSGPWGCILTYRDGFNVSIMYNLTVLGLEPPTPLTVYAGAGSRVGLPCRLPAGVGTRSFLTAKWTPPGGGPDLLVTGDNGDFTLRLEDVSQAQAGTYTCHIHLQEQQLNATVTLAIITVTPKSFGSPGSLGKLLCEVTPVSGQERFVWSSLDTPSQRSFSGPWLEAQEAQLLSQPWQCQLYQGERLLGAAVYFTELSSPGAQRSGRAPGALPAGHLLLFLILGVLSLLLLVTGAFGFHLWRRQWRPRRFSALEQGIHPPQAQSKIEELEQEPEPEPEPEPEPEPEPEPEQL
In words: flow cytometry, 10 ug/ml antibody on SEA-activated primary human CD4+ T cells (FIG. 6A). (In general: In flow cytometry, cells or beads pass a laser one at a time.)
For the molecule B1, the binding result is “binds”.
On the same count and under the same terms, the same measure for B2: “binds”; for B3: “binds”; for B4: “binds”.
For B5, the binding result is recorded as “binds”.
On the same count and under the same terms, the same measure for B6: “binds”.

In a further test the target is T2, recombinant human LAG-3 (human, UniProt P18627 23-450, limits assumed).
T2 sequence (looked up): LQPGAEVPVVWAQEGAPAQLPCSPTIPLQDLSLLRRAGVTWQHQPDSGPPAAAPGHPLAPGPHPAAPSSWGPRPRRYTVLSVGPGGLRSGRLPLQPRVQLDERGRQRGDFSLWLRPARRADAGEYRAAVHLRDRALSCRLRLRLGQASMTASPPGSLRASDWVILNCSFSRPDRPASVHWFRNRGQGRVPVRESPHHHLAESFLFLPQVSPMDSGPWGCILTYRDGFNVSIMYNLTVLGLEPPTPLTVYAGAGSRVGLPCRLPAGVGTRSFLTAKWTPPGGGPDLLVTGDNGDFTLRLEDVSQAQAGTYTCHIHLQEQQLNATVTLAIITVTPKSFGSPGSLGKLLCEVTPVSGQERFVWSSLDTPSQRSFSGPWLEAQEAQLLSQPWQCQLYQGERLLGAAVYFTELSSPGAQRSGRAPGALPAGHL
Kind of test: surface plasmon resonance (data not shown).
For the molecule B1, the binding result is listed as “binds”.
Same read-out and setting: the same measure for B2: “binds”.
On the same count and under the same terms, the same measure for B3: “binds”; for B4: “binds”.
On the same count and under the same terms, under B5 stands “binds”.
Regarding B6, the binding result is recorded as “binds”.
